The results in this text go back to patent publication US20040171629.

In data set [1] the target is FITC-labeled, dephosphorylated casein.
In data set [2] the target is β-casein.
The target in data set [3] is T1, annexin V, P08758.
T1 chain: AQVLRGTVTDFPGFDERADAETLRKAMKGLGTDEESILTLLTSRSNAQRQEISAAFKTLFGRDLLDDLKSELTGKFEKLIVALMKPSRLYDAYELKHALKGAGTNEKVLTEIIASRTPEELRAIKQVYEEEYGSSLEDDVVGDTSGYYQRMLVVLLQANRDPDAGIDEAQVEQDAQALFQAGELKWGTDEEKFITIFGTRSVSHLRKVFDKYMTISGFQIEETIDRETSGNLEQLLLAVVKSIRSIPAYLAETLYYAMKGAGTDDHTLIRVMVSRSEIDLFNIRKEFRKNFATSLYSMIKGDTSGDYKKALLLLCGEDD

Data set [4] has as its target kidney membrane associated proteins.

B1: MBP-Omi-(134-458) (protein)
chain: AVPSPPPASPRSQYNFIADVVEKTAPAVVYIEILDRHPFLGREVPISNGSGFVVAADGLIVTNAHVVADRRRVRVRLLSGDTYEAVVTAVDPVADIATLRIQTKEPLPTLPLGRSADVRQGEFVVAMGSPFALQNTITSGIVSSAQRPARDLGLPQTNVEYIQTDAAIDFGNSGGPLVNLDGEVIGVNTMKVTAGISFAIPSDRLREFLHRGEKKNSSSGISGSQRRYIGVMMLTLSPSILAELQLREPSFPDVQHGVLIHKVILGSPAHRAGLRPGDVILAIGEQMVQNAEDVYEAVRTQSQLAVQIRRGRETLTLYVTPEVTE
For B1, in data set [1], the “proteolytic activity, fluorescence at 535 nm of Dcasein-FITC” value is given as “there was a rapid increase in fluorescence for the first 20 min followed by a slower increase for the remaining 10 min of the assay”.

B2: His-tagged Omi-(134-458) (protein)
chain: AVPSPPPASPRSQYNFIADVVEKTAPAVVYIEILDRHPFLGREVPISNGSGFVVAADGLIVTNAHVVADRRRVRVRLLSGDTYEAVVTAVDPVADIATLRIQTKEPLPTLPLGRSADVRQGEFVVAMGSPFALQNTITSGIVSSAQRPARDLGLPQTNVEYIQTDAAIDFGNSGGPLVNLDGEVIGVNTMKVTAGISFAIPSDRLREFLHRGEKKNSSSGISGSQRRYIGVMMLTLSPSILAELQLREPSFPDVQHGVLIHKVILGSPAHRAGLRPGDVILAIGEQMVQNAEDVYEAVRTQSQLAVQIRRGRETLTLYVTPEVTE
Regarding B2, the “proteolytic activity, SDS-PAGE with Coomassie Blue staining” value in data set [2] was “had substantial activity against β-casein, and after 30 min total degradation of the substrate occurred”. The “cleavage in human kidney cytoplasmic extract, 2-dimensional gel electrophoresis” value in data set [3] was “two polypeptides (32 kD and 29 kD) in the human kidney cytoplasmic fraction were specifically cleaved by His-Omi”. Also, the “cleavage in human kidney membrane extract, 2-dimensional gel electrophoresis” value in data set [4] was “No proteins were cleaved in the membrane bound fractions”.
